Measurements from publication doi:10.1101/2022.01.06.475303.

Key:
[1] = target: SARS-CoV-2 S protein (recombinant, His-tagged) (SARS-CoV-2 Wuhan-Hu-1 (MN908947)) (UniProt P0DTC2)
[2] = target: SARS-CoV-2 receptor binding domain (RBD), Wuhan-1 (SARS-CoV-2 Wuhan-Hu-1) (UniProt P0DTC2); assay: SPR

Row | Substance | fold higher binding affinity than for RBD [1] [fold] | Kd [2] [nM]
1 | CC6.33 Fab | 10 | –
2 | CC6.30 IgG (antibody) | – | 1.7
3 | CC6.33 IgG (antibody) | – | 257
4 | CC12.1 IgG (antibody) | – | 6
